In patent US6790646B2, “Mutants of monoamine oxidase B” (Research Development Foundation, priority 1998, dated 2004):
Changes are numbered by the printed parent chain.

T1: MAO B (Homo sapiens, UniProt P27338, F423A)
T1 construct: expressed in transfected cells; host or cells: COS-7
T1 sequence (P27338 2-520 F423A): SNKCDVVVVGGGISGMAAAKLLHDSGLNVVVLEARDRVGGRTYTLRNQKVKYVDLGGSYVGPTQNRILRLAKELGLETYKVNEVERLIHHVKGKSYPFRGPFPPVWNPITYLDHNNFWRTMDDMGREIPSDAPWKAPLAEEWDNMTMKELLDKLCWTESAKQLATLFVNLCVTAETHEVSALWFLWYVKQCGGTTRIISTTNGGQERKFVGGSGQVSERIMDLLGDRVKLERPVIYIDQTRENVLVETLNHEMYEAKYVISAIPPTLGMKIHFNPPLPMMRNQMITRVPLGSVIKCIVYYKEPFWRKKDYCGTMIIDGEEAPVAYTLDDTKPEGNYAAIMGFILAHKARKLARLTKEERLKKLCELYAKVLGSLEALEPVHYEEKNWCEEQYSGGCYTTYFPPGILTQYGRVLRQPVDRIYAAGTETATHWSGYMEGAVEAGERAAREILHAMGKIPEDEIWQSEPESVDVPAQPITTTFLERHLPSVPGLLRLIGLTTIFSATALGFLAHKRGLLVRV

T2: MAO B (Homo sapiens, UniProt P27338, E427Q)
T2 construct: expressed in transfected cells; host or cells: COS-7
T2 sequence (P27338 2-520 E427Q): T1 sequence (P27338 2-520 F423A) with A422F, E426Q

B1: WT: wild-type human MAO B enzyme expressed from cDNA in pSVK3 in COS-7 cells (protein, UniProt P27338 2-520, looked up)
Amine oxidase …: T1 sequence (P27338 2-520 F423A) with A422F
B2: T428 A: human MAO B mutant, Thr428 changed to Ala (protein, UniProt P27338 2-520, looked up, variant T428A)
Amine oxidase …: T1 sequence (P27338 2-520 F423A) with A422F, T427A
B3: T428 S: human MAO B mutant, Thr428 changed to Ser (protein, UniProt P27338 2-520, looked up, variant T428S)
Amine oxidase …: T1 sequence (P27338 2-520 F423A) with A422F, T427S
B4: F423 A: human MAO B mutant, Phe residue at position 423 changed to Ala (protein, UniProt P27338 2-520, looked up, variant F423A)
Amine oxidase …: T1 sequence (P27338 2-520 F423A)
B5: E427 Q: human MAO B mutant, Glu427 changed to Gln (protein, UniProt P27338 2-520, looked up, variant E427Q)
Amine oxidase …: T1 sequence (P27338 2-520 F423A) with A422F, E426Q

Experiments:
[1] = test system: MAO B; assay: pH profiles of wild-type and mutant MAO B enzymatic activity with [14C]benzylamine; type: biochemical, human; details: pH 6.0 to 9.0, 500 μM benzylamine
Experimental: (§1) Aliquots (20 μl) of transfected COS-7 cell homogenates were incubated for 10 min at 37° C. in the presence of 500 μM (^14C)benzylamine (2.5 mCi/mmol) in 50 mM sodium phosphate buffer, pH 6.0, 6.5, 7.0, 7.5, 8.0, 8.5 or 9.0 (200 μl total volume). Reactions were stopped by addition of 25 μl of 6 N HCl. Parallel assays were carried out with untransfected COS-7 homogenates as a control. Samples were processed as previously described (28) and the derived specific activity values (nmol/min·mg protein) were divided by wild-type or mutant MAO B concentration, determined for each experiment, to obtain enzymatic activity values (nmol/min·m g MAO B). Enzymatic activities were determined in duplicate for three separate experiments.
(§2) To examine the possibility that the mutation effects a proton-dependent step in the reaction, the enzymatic activity of the mutant and wild-type MAO B enzymes was determined at different pH values from 6.0 to 9.0 (FIG. 4).

[2] = test system: MAO B; assay: Kinetic analysis of wild-type and mutant MAO B with [14C]benzylamine substrate (transfected COS-7 cell homogenates); type: biochemical, human; details: for Kcat / Km / Vmax: pH 7.5, 37° C., apparent, mean + S.E.M., n=3; for Kcat reduced by: versus wild-type; for activity relative to wild-type: activity too low to determine kinetic parameters
Experimental: (§3) The wild-type and mutant MAO B enzymes were expressed in mammalian COS-7 cells, and the enzymatic properties of the native enzyme and its mutant enzymes were determined and compared. Wild-type and mutant MAO B cDNAs were transiently transfected into COS-7 cells by electroporation. Cells were harvested during late log phase growth and resuspended to a concentration of 3.125×10^6 cells/ml in DMEM supplemented with 10% fetal bovine serum (FBS). Fifteen μg of normal or mutant cDNA were added to 0.8 ml (2.5×10^6 cells) of cell suspension. Electroporation was carried out in a Bio-Rad Gene Pulser with a setting of 0.25 kV and 500 μF. Cells were resuspended in 15 ml of DMEM/FBS and incubated at 37° C. with 5% CO2 for 48 h.
(§4) Aliquots (20 μl) of transfected COS-7 cell homogenates were incubated for 10 min at 37° C. in the presence of various concentrations of [^14C]PEA (20 mCi/mmol) or [^14C]benzylamine (10 mCi/mmol) in 50 mM sodium phosphate buffer, pH 7.5 (200 μl total volume). Substrate concentrations ranged from 0.25-2.5 times the Km value (determined in pilot experiments) to yield 10 equally-spaced reciprocal increments. Parallel assays were carried out with untransfected COS-7 cell lysates as a control. Reactions were stopped by addition of 25 μl of 6 N HCl and the deaminated products were extracted by vortexing for 30 seconds with 500 μl of toluene or toluene:ethyl acetate (1:1) for benzylamine or PEA, respectively. Samples were processed as described previously (28). Apparent Km and Vmax values were determined by linear regression analysis of Lineweaver-Burk plots. Kcat values were calculated from the Vmax values divided by the concentration of wild-type or mutant MAO B determined in each experiment. Expression levels of wild-type or mutant MAO B were determined in triplicate for six separate experiments as follows: wild-type=11.1+2.07; F423A=9.30+1.89; E427Q=10.3+1.29; T428A=10.2+2.07; T428S=10.2+1.53 pmol MAO B/mg protein. Data are given as means +S.E.M. pmol/mg of protein determined using a subunit molecular weight of 58,800.

[3] = test system: COS-7 cells; assay: Expression levels of wild-type or mutant MAO B in transfected COS-7 cells; details: transiently transfected COS-7 cells, triplicate, six experiments, mean + S.E.M., subunit molecular weight 58,800
Experimental: as §3, §4

[4] = test system: MAO B; assay: Kinetic analysis of wild-type and mutant MAO B with [14C]PEA substrate (transfected COS-7 cell homogenates); type: biochemical, human; details: PEA substrate; for Kcat / Km / Vmax: pH 7.5, 37° C., apparent, mean + S.E.M., n=3; for activity relative to wild-type: activity too low to determine kinetic parameters
Experimental: as §3, §4

[5] = target: T1, MAO B; assay: as above; type: biochemical; details: substrate not stated in the sentence (Tables 1 and 2: PEA and benzylamine)
Experimental: as §3, §4

[6] = target: T2, MAO B; assay: pH profiles of wild-type and mutant MAO B enzymatic activity with [14C]benzylamine; type: biochemical; details: pH 6.0 to 9.0, 500 μM benzylamine
Experimental: as §1, §2

| Molecule | pH profile of enzymatic activity [1] | Kcat [2] | Km [2] [µM] | Vmax [2] | Expression level [3] | Kcat [4] | Km [4] [µM] | Vmax [4] | Km compared with wild-type [2] | Kcat reduced by [2] [%] | Kcat relative to wild-type (reduction) [4] | activity relative to wild-type [2] | activity relative to wild-type [4] | decrease in activity compared to the wild-type enzyme [5] [% reduction] | activity relative to wild-type [6] | activity relative to wild-type ([2]; listed as E427Q) [% wt] | activity relative to wild-type ([4]; listed as E427Q) [% wt] |
| --- | --- | --- | --- | --- | --- | --- | --- | --- | --- | --- | --- | --- | --- | --- | --- | --- | --- |
| B1 | characteristic increase in activity with increasing pH | 83.0 + 14.4 min^−1 | 19.3 | 0.879 + 0.19 nmol/min · mg protein | 11.1+2.07 pmol MAO B/mg protein | 29.8 + 5.0 min^−1 | 3.38 | 0.325 + 0.008 nmol/min · mg protein |  |  |  |  |  |  |  |  |  |
| B2 |  | 46.2 + 19.1 min^−1 | 18.6 | 0.374 + 0.06 nmol/min · mg protein | 10.2+2.07 pmol MAO B/mg protein | 14.3 + 2.6 min^−1 | 11.1 | 0.161 + 0.039 nmol/min · mg protein | approximately equal to wild-type | 44 | ~50 % of wild-type |  |  |  |  |  |  |
| B3 |  | 27.2 + 5.8 min^−1 | 5.4 | 0.236 + 0.05 nmol/min · mg protein | 10.2+1.53 pmol MAO B/mg protein | 14.5 + 2.0 min^−1 | 11.6 | 0.162 + 0.22 nmol/min · mg protein | approximately equal to wild-type | 67 | ~50 % of wild-type |  |  |  |  |  |  |
| B4 | fairly similar to wild-type MAO B |  |  |  | 9.30+1.89 pmol MAO B/mg protein |  |  |  |  |  |  | (<5% wt) | (<5% wt) | > 95 |  |  |  |
| B5 | essentially independent of pH |  |  |  | 10.3+1.29 pmol MAO B/mg protein |  |  |  |  |  |  | (<5% wt) | (<5% wt) |  | < 5 % of wild-type | < 5 | < 5 |
